Data as given in patent US20250177546A1 (SANYOU BIOPHARMACEUTICALS, published 2025).

Experiments:
[1] = target: T1, huROR1-His (human ROR1 ECD AA30-406 with C-terminal His tag, made in house) (human, UniProt Q01973 30-406); assay: Gator (BLI) Advanced Kinetics; antibody 30 nM, huROR1-His 480-7.5 nM
T1 construct: range 30-406; Expressed in HEK293; also called antigen protein huROR1-His; not shown: C-terminal His tag
Description: First, Q buffer was prepared with PBS (10 mM pH7.4) (IgG-free, purchased from Jackson ImmunoResearch Lab)+0.02% Tween 20 (purchased from thermo)+0.2% BSA (purchased from source culture), and the stock solution of the test antibody was diluted with the prepared Q buffer to a working solution with a final concentration of 30 nM, the stock solution of the antigen protein huROR1-His was prepared with Q buffer into a working solution with multiple dilutions (480, 240, 120, 60, 30, 15, 7.5 nM), and detection and analysis was then performed with Gator instrument and its accompanying software, selecting the Advanced Kinetics experimental mode is used.

[2] = target: T1, huROR1-His (human ROR1 ECD AA30-406 …); assay: ELISA, huROR1-His coated plate, goat anti-human Fc-HRP, OD450
[3] = target: T1, huROR1-His (human ROR1 ECD AA30-406 …); assay: as above; remark: listed apart in the source
[4] = target: T1, huROR1-His (human ROR1 ECD AA30-406 …); assay: as above; remark: listed apart in the source
[5] = target: T1, huROR1-His (human ROR1 ECD AA30-406 …); assay: ELISA, huROR1-His coated at 2 µg/mL, goat anti-human Fc-HRP, OD450
Description: (§1) 96-well ELISA plate was coated with 2 μg/mL huROR1-His (30 μL/well) at 4° C. overnight. The next day, the plate was washed three times with PBST and then blocked with 5% skim milk for 2 h. […] After washing with PBST for three times, the secondary antibody Goat-anti-human Fc-HRP (abcam, ab97225) was added and incubated for 1 h. After incubation, the plate was washed with PBST for 6 times and TMB (SurModics, TMBS-1000-01) was added for color development. According to the color development results, 2 M HCl was added to terminate the reaction, and the data were read at OD450 using a microplate reader (Molecular Devices, SpecterMax 190).

[6] = target: T2, huROR2-His (human ROR2 ECD AA34-403 with C-terminal His tag) (human, UniProt Q01974 34-403); assay: ELISA, huROR2-His coated at 2 µg/mL, goat anti-human Fc-HRP, OD450
T2 construct: range 34-403; Expressed in HEK293; also called human ROR2 antigen protein; not shown: C-terminal His tag
Description: as §1, with “huROR2-His” for “huROR1-His”, “TMBS-1000-0)” for “TMBS-1000-01)”

[7] = target: T3, MusROR1-His (mouse ROR1 ECD AA30-406 with C-terminal His tag) (mouse, UniProt Q9Z139 30-406); assay: ELISA, MusROR1-His coated at 2 µg/mL, goat anti-human Fc-HRP, OD450
T3 construct: range 30-406; Expressed in HEK293; also called mouse ROR1 antigen protein; not shown: C-terminal His tag
Description: as §1, with “MusROR1-His” for “huROR1-His”

[8] = target: T4, human ROR1 on cells (full-length human ROR1 on huROR1-HEK293 cells; human ROR1 on A549 and HT-29 tumor cells) (human, UniProt Q01973 30-937); assay: flow cytometry (FACS) on A549 tumor cells, anti-human IgG-Fc secondary antibody, MFI
T4 construct: whole, on cells; also called hROR1-HEK293T; A549 tumor cells
Description: (§2) In this example, the binding activity of the antibody was evaluated using two types of cells, huROR1-HEK293 cells over-expressing human ROR1 and A549 tumor cells.
(§3) The specific method was as follows: huROR1-HEK293 cells or A549 cells in the logarithmic growth phase were prepared to a single-cell suspension, the density was adjusted to 1×10⁶ cells/mL, then 100 μL/well cells were added to a 96-well round-bottom plate, centrifuged at 4° C., 300 g, and the supernatant was removed. […] After the incubation, the cell mixture was washed three times and then 100 μL of 1:300 diluted secondary antibody Goat F(ab′)₂ Anti-Human IgG-Fc (abcam, ab98596) was added. The mixture was incubated at 4° C. in the dark for 30 min. After washing three times, the cells were detected by flow cytometry (Beckman, CytoFLEX AOO-1-1102).

[9] = target: T4, human ROR1 on cells (full-length human …); assay: flow cytometry (FACS) on huROR1-HEK293 cells, anti-human IgG-Fc secondary antibody, MFI
Description: as §2, §3

[10] = target: T1, huROR1-His (human ROR1 ECD AA30-406 …); assay: Biacore T200 SPR; huROR1-His amine-coupled (~75 RU), antibody 4 and 20 nM as analyte, 1:1 Langmuir fit
Description: Protein coupling: The huROR1-His protein produced in Example 1.2 was diluted to 5.6 μg/mL with NaAc buffer, pH 5.0, the flow rate was set to 10 μL/min, the chip activation time was set to the default value of 420 s with a mixture of 1-ethyl-(3-dimethylaminopropyl)carbodiimide (EDC) and N-hydroxysuccinimide (NHS), and the antigen protein huROR1-His was fixed to a level of about 75 RU using a coupling mode with a preset coupling amount, and the activated groups that were not bound to the test sample were blocked with ethanolamine.
Sample test conditions: PBS buffer (pH 7.4) containing 0.05% Tween-20 was used as the running buffer, and the running buffer was used as the control test sample. A series of antibody concentrations (4 nM, 20 nM) were set. During sample analysis, the flow rate was set to 30 μL/min, the binding time was 120 s, and the dissociation time was 360 s. After the dissociation was completed, 10 mM Gly-HCl (pH 2.0) was used for regeneration for 20 s to completely remove the antibody bound to the ligand.
Parameter fitting: The experiment was run in multiple cycles, with the response signal taking the analysis time as the horizontal axis and the response value as the vertical axis. After double reference subtraction, the obtained data were fitted by BiAcore T200 analysis software. The fitting model adopted was 1:1 Langmuir binding model, and Affinity metrics such as the binding dissociation constant were determined.

T1 sequence (Q01973 30-406 limits assumed): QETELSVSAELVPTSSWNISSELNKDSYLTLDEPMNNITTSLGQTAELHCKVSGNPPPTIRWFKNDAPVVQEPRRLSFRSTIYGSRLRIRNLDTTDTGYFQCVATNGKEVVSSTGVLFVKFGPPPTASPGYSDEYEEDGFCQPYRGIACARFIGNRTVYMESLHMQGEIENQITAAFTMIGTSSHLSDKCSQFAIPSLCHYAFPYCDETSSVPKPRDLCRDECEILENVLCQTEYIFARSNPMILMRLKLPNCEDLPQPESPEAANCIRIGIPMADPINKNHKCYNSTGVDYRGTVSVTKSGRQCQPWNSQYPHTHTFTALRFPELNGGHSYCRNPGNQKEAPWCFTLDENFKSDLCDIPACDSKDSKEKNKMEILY
T4 sequence (Q01973 30-937): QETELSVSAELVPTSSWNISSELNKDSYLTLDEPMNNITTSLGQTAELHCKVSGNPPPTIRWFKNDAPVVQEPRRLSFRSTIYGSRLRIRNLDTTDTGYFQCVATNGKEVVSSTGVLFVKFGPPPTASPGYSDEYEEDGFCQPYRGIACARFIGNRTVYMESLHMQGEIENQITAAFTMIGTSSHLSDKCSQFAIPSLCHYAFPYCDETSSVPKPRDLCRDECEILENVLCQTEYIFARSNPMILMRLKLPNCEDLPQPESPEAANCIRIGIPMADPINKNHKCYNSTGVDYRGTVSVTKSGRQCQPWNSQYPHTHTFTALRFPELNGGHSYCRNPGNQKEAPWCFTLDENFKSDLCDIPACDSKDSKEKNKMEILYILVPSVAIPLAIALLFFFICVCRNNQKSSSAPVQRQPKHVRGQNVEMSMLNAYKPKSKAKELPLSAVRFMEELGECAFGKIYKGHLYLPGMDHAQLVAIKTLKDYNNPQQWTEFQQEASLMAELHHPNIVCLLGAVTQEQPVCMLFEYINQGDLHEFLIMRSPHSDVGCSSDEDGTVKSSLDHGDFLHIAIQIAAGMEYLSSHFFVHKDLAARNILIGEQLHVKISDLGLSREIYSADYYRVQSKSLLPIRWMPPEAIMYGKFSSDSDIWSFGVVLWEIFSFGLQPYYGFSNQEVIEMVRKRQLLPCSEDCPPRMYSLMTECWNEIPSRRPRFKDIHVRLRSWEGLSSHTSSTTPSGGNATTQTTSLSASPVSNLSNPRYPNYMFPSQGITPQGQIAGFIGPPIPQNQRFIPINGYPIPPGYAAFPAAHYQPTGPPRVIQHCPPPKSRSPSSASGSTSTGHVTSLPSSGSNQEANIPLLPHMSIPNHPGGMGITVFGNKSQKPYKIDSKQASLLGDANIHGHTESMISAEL
T2 sequence (Q01974 34-403 limits assumed): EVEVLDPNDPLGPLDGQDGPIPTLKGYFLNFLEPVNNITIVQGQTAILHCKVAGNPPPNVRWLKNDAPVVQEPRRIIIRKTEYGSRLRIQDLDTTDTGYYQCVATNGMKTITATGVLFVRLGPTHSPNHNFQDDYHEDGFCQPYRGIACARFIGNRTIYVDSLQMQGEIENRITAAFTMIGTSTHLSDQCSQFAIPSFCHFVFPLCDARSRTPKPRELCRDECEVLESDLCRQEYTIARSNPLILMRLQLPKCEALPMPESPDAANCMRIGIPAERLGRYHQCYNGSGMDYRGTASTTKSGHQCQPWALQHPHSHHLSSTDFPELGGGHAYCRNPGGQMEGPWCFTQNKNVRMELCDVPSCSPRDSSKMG
T3 sequence (Q9Z139 30-406 limits assumed): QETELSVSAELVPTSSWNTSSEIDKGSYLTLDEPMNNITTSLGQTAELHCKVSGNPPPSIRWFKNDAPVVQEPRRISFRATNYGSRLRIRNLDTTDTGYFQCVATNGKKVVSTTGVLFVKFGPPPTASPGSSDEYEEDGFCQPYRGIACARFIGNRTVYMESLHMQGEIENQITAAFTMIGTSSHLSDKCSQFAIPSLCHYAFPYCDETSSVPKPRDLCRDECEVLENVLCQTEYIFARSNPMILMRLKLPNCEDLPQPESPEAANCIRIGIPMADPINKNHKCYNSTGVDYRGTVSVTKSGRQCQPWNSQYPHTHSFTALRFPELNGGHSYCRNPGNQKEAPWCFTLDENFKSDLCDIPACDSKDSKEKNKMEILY

- Kd [1]: 5.67 nM
- koff [1]: 0.00217 s⁻¹
- kon [1]: 383000 M⁻¹ s⁻¹
- EC50 [2]: 2.12 ng/mL
- EC50 [3]: 1.92 ng/mL
- EC50 [4]: 1.63 ng/mL
- EC50 [5]: 5.49 ng/mL
- binding result [6]: no binding (tested: 1 µg/mL)
- binding result [7]: no binding (tested: 1 µg/mL)
- EC50 (read off the curve) [8]: ~5 ng/mL
- EC50 (read off the curve) [9]: ~80 ng/mL
- Kd [10]: 1.25 nM
- koff [10]: 0.000817 s⁻¹
- kon [10]: 653000 M⁻¹ s⁻¹
- t 1/2 [10]: 14.1 min
B1: B31 (chimeric antibody) (antibody, human IgG1, kappa, V domains shown)
VH: EVMLVESGGGLVKPGGSLKLSCAASGFTFSRYAMSWVRQTPEKRLEWVASISRGGSTYYPDSVKGRFTISRDNARNILYLQMSSLRSEDTAMYYCASYFGNYDAMDYWGQGTSVTVSS
VL: DIQMNQSPSSMYASLGERVTITCKASQDINNYVSWFQQKPGKSPKTLIYRANRLVDGVPSRFSGSGSGQDYSFTISSLEYEDMGIYYCLQFDEFPYTFGGGTKLEIKR
notes: ExpiCHO expression
